Measurements from US20170002074A1 (Genentech, published 2017).
Like-named read-outs stand apart in the source and are kept apart here.

Experiments:
Human CD33 [1] = molecular target: T1, Human CD33 (human, UniProt P20138 18-364); assay: Scatchard analysis, [125I]-labeled antibody competed by unlabeled antibody, Molm-13 cells (endogenous CD33)
T1 construct: One molecule is used for recombinant CD33 on HEK293AD/293 cells and for endogenous human CD33 on tumor or myeloid cells; the cell is named under assay; also called huCD33; hu CD33

Human CD33 [2] = molecular target: T1, Human CD33; assay: Scatchard analysis, [125I]-labeled antibody competed by unlabeled antibody, HEK293AD cells stably expressing human CD33
Cynomolgus monkey CD33 [3] = molecular target: T2, Cynomolgus monkey CD33 (cynomolgus monkey); assay: Scatchard analysis, [125I]-labeled antibody competed by unlabeled antibody, HEK293AD cells stably expressing cynomolgus CD33
T2 construct: Used for recombinant CD33 on HEK293AD cells and endogenous CD33 on cynomolgus CD14+/CD33+ myeloid cells; also called cynoCD33; cyno CD33

huCD33 R69G variant [4] = molecular target: T3, huCD33 R69G variant (human, UniProt P20138 18-364); assay: FACS, direct Dylight 488 conjugate, on 293AD cells labelled 'SNPG69R', taken as the SNP variant of paragraph 650
T3 construct: also called G69 CD33; SNP R69G (r2455069)

[5] = molecular target: T4, Construct-88: irrelevant Ig-like V linked to a CD33 Ig-like C (R144-Q228 including TM/CD L229) (human); assay: FACS on 293 cells transiently transfected with construct 88, Dylight-650 labelled antibody at 1-10 µg/ml
T4 construct: N-terminal or cytoplasmic tags were attached

[6] = molecular target: T5, Construct-88B: CD33 Ig-like V (M17-V136 including spacer H137-H143) linked to an irrelevant Ig-like C … (human); assay: FACS, Dylight-650 labeled antibody (1-10 ug/ml) on 293 cells transiently transfected with construct 88B
T5 construct: also called Ig-like V domain of huCD33

huCD33 R69G variant [7] = molecular target: T3, huCD33 R69G variant; assay: FACS, direct Dylight 488 conjugate, on 293AD cells labelled 'SNPG69R', taken as the SNP variant of paragraph 650; remark: listed apart in the source
[8] = molecular target: T5, Construct-88B: CD33 Ig-like V (M17-V136 …); assay: FACS on 293 cells transiently transfected with construct 88B, Dylight-650 labelled antibody at 1-10 µg/ml
Cynomolgus monkey CD33 [9] = molecular target: T2, Cynomolgus monkey CD33; assay: FACS, HEK293AD cells stably expressing cynomolgus CD33
Human CD33 [10] = molecular target: T1, Human CD33; assay: FACS titration on EOL-1 cells (endogenous huCD33), geometric mean fluorescence, 0.1-10 µg/ml antibody
Cynomolgus monkey CD33 [11] = molecular target: T2, Cynomolgus monkey CD33; assay: Scatchard analysis, HEK293AD cells stably expressing cynomolgus CD33; Scatchard analysis on 293-cynCD33 cells

Binder	Kd (Human CD33 [1])	Kd (Human CD33 [2])	Kd (Cynomolgus monkey CD33 [3])	further results
10D3 (antibody, V domains shown) VH: EVQLVESGAEVKKPGSSVKVSCKASGGTLISHAISWVRQVPGQGLEWMGGIIPIFGSANYAQKFQGRVTITADDSTNTAYLELSSLRSEDTAVYYCARELLDVFDIWGQGTMVTVSS VL: not shown	2.6 nM	3.3 nM	0.7 nM	Geom. Mean:FL4-H [5]: 12.1; fold binding over isotype control [6]: ≥ 100 fold; Geom. Mean:FL1-H (huCD33 R69G variant [7]): 103; Geom. Mean:FL4-H [8]: 684
15G15 (antibody, V domains shown) VH: QVQLVQSGAEVKKPGSSVKVSCKASGGIFSNHAISWVRQAPGQGLEWMGGIIPIFGTANYAQKFQGRVTITADESTSTAFMELSSLRSEDTAVYYCAREWADVFDIWGQGTMVTVSS VL: not shown				Geom. Mean:FL1-H (huCD33 R69G variant [7]): 123
7A1 (antibody, V domains shown) VH: QVQLVQSGAEVKKPGSSVKVSCKASGGTFTSYAVSWVRQAPGQGLEWMGGIIPIFGTADYAQKFQGRVTITADESTSTAYMELSSLRSEDTAVYYCARELADVFDIWGQGTMVTVSS VL: not shown			0.54 nM	Geom. Mean:FL4-H [5]: 13; Geom. Mean:FL1-H (huCD33 R69G variant [7]): 125; Geom. Mean:FL4-H [8]: 772
15G15.33 (antibody, V domains shown, Variant of 15G15) VH: QVQLVQSGAEVKKPGSSVKVSCKASGGIFSNHAISWVRQAPGQGLEWMGGIIPIFGTANYAQKFQGRVTITADESTSTAFMELSSLRSEDTAVYYCAREWADVFDIWGQGTMVTVSS VL: EIVLTQSPLSLPVTPGEPASISCRSSQSLLHSNGYNYLDWYLQKPGQSPQLLIYLGVNSVSGVPDRFSGSGSGTDFTLKISRVEAEDVGVYYCMQALQTPWTFGQGTKVEIK	0.9 nM	0.7 nM	0.3 nM	
9C2 (antibody, V domains shown) VH: QVQLVQSGAEVKKPGSSVKVSCKASGDTFSSYSISWVRQAPGQGLEWMGEIIPIFGTADYAQKFQGRVTITADISTTTAYMELSSLRSEDTAVYYCARTWADAFDIWGQGTMVTVSS VL: not shown	10.3 nM	6.5 nM	0.7 nM	Geom. Mean:FL4-H [5]: 11.2; fold binding over isotype control [6]: ≥ 100 fold; Geom. Mean:FL1-H (huCD33 R69G variant [7]): 71.7; Geom. Mean:FL4-H [8]: 366
23E4 (antibody, V domains shown) VH: EVQLQQSGAELVRPGASVKLSCKASGYTFTNYWMNWVKQRPGQGLEWIGMIDPSDNETHYSQMFKDKATLTVDKSSSTAYMQLISLTSEDSAVYYCAGYYGNFGWFVYWGQGTLVTVSA VL: DIFMTQTPLSLPVSLGDPASISCRSSQTIVHSNGNTYLEWYLQKPGQSPKLLIYKVSNRFSGVPDRFSGSGSGTDFTLKISRVEAEDLGVYYCFQGSHVPPTFGGGTKVEIK				Geom. Mean:FL1-H (huCD33 R69G variant [4]): 50.1; binding result (Cynomolgus monkey CD33 [9]): no binding (tested: 1 mg/ml)
9C3 (antibody, V domains shown, atypical N-linked glycosylation site in the heavy chain between CDR2 and CDR3 at position 69 (kabat #)) VH: EVQLVESGGALIQPGGSLRLSCVASGFTISGNYMSWVRQAPGKGLEWVSLIYSGDSTYYADSVKGRFNISRDISKNTVYLQMNSLRVEDTAVYYCVRDGYYVSDMVVWGKGTTVTVSS VL: DIQMTQSPSSLSASVGDRVTITCRASQGIRNDLGWYQQKPGKAPKRLIYAASSLQSGVPSRFSGSGSGTEFTLTISSLQPEDFATYYCLQHNSYPWTFGQGTKLEIK	5.8 nM	0.8 nM	0.6 nM	EC50 (Human CD33 [10]): 0.54 µg/mL
9C3.2 (antibody, V domains shown, Variant of 9C3 with the heavy chain N-glycosylation site removed) VH: EVQLVESGGALIQPGGSLRLSCVASGFTISGNYMSWVRQAPGKGLEWVSLIYSGDSTYYADSVKGRFTISRDISKNTVYLQMNSLRVEDTAVYYCVRDGYYVSDMVVWGKGTTVTVSS VL: DIQMTQSPSSLSASVGDRVTITCRASQGIRNDLGWYQQKPGKAPKRLIYAASSLQSGVPSRFSGSGSGTEFTLTISSLQPEDFATYYCLQHNSYPWTFGQGTKLEIK	2 nM			EC50 (Human CD33 [10]): 0.46 µg/mL
9C3.3 (antibody, V domains shown, Variant of 9C3 with the heavy chain N-glycosylation site removed) VH: EVQLVESGGALIQPGGSLRLSCVASGFTISGNYMSWVRQAPGKGLEWVSLIYSGDSTYYADSVKGRFSISRDISKNTVYLQMNSLRVEDTAVYYCVRDGYYVSDMVVWGKGTTVTVSS VL: DIQMTQSPSSLSASVGDRVTITCRASQGIRNDLGWYQQKPGKAPKRLIYAASSLQSGVPSRFSGSGSGTEFTLTISSLQPEDFATYYCLQHNSYPWTFGQGTKLEIK	2.2 nM			EC50 (Human CD33 [10]): 0.42 µg/mL
9C3.4 (antibody, V domains shown, Variant of 9C3 with the heavy chain N-glycosylation site removed) VH: EVQLVESGGALIQPGGSLRLSCVASGFTISGNYMSWVRQAPGKGLEWVSLIYSGDSTYYADSVKGRFAISRDISKNTVYLQMNSLRVEDTAVYYCVRDGYYVSDMVVWGKGTTVTVSS VL: DIQMTQSPSSLSASVGDRVTITCRASQGIRNDLGWYQQKPGKAPKRLIYAASSLQSGVPSRFSGSGSGTEFTLTISSLQPEDFATYYCLQHNSYPWTFGQGTKLEIK	2.7 nM			EC50 (Human CD33 [10]): 0.23 µg/mL

Second part, led by results:

Kd (Human CD33 [1])	Kd (Human CD33 [2])	Kd (Cynomolgus monkey CD33 [3])	Binder	further results
~9.2 nM	8.7 nM	0.92 nM	33F9 (antibody, V domains shown) VH: EVQLQQSGPELVKPGASVKMSCKASGYTFTSYVMHWMKQKPGQGLEWIGYINPYNDGTKYNDKFKGKATLTSDKSSSTAYMELSSLTSEDSAVYYCARGSNYEDFAMDYRGQGTSVTVSS VL: DIVMTQSPASQSASLGESVTITCLASQTIGTWLAWYQQKPGKSPQLLIYAATTLADGVPSRFSGSGSGTKFSFKISSLQAEDFVSYYCQQLYSTPLTFGGGTKVEIK	Geom. Mean:FL1-H (huCD33 R69G variant [4]): 85.2
0.5 nM	0.5 nM	0.2 nM	15G15.83 (antibody, V domains shown, Variant of 15G15) VH: QVQLVQSGAEVKKPGSSVKVSCKASGGIFSNHAISWVRQAPGQGLEWMGGIIPIFGTANYAQKFQGRVTITADESTSTAFMELSSLRSEDTAVYYCAREWADVFDIWGQGTMVTVSS VL: EIVLTQSPLSLPVTPGEPASISCRSSQSLLHSNGYNYLDWYLQKPGQSPQLLIYLGAYTVSGVPDRFSGSGSGTDFTLKISRVEAEDVGVYYCMQALQTPWTFGQGTKVEIK	
0.8 nM	0.7 nM	0.2 nM	15G15.88 (antibody, V domains shown, Variant of 15G15) VH: QVQLVQSGAEVKKPGSSVKVSCKASGGIFSNHAISWVRQAPGQGLEWMGGIIPIFGTANYAQKFQGRVTITADESTSTAFMELSSLRSEDTAVYYCAREWADVFDIWGQGTMVTVSS VL: EIVLTQSPLSLPVTPGEPASISCRSSQSLLHSNGYNYLDWYLQKPGQSPQLLIYLGNYRVSGVPDRFSGSGSGTDFTLKISRVEAEDVGVYYCMQALQTPWTFGQGTKVEIK	
23 nM	13.4 nM	4.5 nM	27C6 (antibody, V domains shown) VH: EVQLQQSGPELVKPGASVKVSCKASGYAFTSYNMYWVKQSHGKSLEWIGYIDPYNGGTRHNQKFKDKATLTVDKSSSTAYMHLNSLTSEDSAVYYCASQNYEYFDYWGQGTTLTVSS VL: DIVLTQSPKFMSTSVGDRVSITCKASQDVGDAVAWYQQKPGQSPKLLFYWTSTRHTGVPDRFTGSGSGTEFTLTIRNVQSEDLADYFCQQYRSTPLTFGSGTKVEIK	Geom. Mean:FL1-H (huCD33 R69G variant [4]): 32.3
0.6 nM	2.4 nM		33H4 (antibody, V domains shown) VH: EVQLQQSGAELVKPGASVKMSCKAFGYTFTTFPIEWMKQSHGKSLEWIGNFHPYNDQTKYNEEFKGRAKLTIDRSSSTVYLELGRLTSDDSAVYYCARGYYYAFDFWGQGTTLTVSS VL: DIQMTQSPASLTVSLGQRATISCRASESVDSYGNSYLHWYQQKPGQPPQLLIYLASNLESGVPARFSGSGSRTDFTLTIDPVEADDAATYYCQQNNEDPWTFGGGTKVEIK	binding result (Cynomolgus monkey CD33 [11]): no binding; Geom. Mean:FL1-H (huCD33 R69G variant [4]): 78.7
